Assay results from article PMC11431768, “Mechanistic Insights into Substrate Recognition of Human Nucleoside Diphosphate Kinase C Based on Nucleotide-Induced Structural Changes” (International Journal of Molecular Sciences, 2024).

B1: human nucleoside diphosphate kinase C, N-terminally truncated (residues Thr18–Glu169), untagged (enzyme, UniProt Q13232 18-169, looked up)
chain: TGAHERTFLAVKPDGVQRRLVGEIVRRFERKGFKLVALKLVQASEELLREHYAELRERPFYGRLVKYMASGPVVAMVWQGLDVVRTSRALIGATNPADAPPGTIRGDFCIEVGKNLIHGSDSVESARREIALWFRADELLCWEDSAGHWLYE
notes: human NDPK-C (nme3 gene product), residues Thr18-Glu169 of UniProt Q13232; The forward primer puts a start codon (Met) before Thr18; The results speak of a 156-residue subunit, while Thr18-Glu169 is 152 residues; The extra residues are probably what TEV cleavage leaves of the tag plus the Met; also called NDPK-C; NDPK isoform C; source: E. coli BL21 (DE3), purified (HisTrap, SEC, TEV cleavage, …)
B2: His-tagged human NDPK-C (residues Thr18–Glu169) (enzyme, UniProt Q13232 18-169, looked up)
chain: B1 chain
notes: human NDPK-C (nme3 gene product), residues Thr18-Glu169 of UniProt Q13232; the expression plasmid encodes a 173 amino acid polypeptide including the N-terminal TEV-cleavable His-tag; 173 residues in all; also called His-NDPK-C; His-tagged NDPK-C; not shown: His6, N-terminal, kept

Tests used:
[1] = molecular target: the molecule itself; test: SEC-MALS; SEC-RI-MALS; Superdex 200 5/150; samples at 60 to 600 µM; gel filtration buffer (20 mM Tris-HCl, 300 mM NaCl, 5 mM MgCl2, DTT); 0.3 mL/min; RI at 25 °C
[2] = molecular target: the molecule itself; test: mass photometry; His-tagged NDPK-C directly after affinity purification

| Protein | stoichiometry N [1] | stoichiometry N [2] |
| --- | --- | --- |
| B1 | 6 | – |
| B2 | – | 6 |
